Data on seven molecules can be found in publication PMC10434055, “Functional Characterization of Small Alarmone Synthetase and Small Alarmone Hydrolase Proteins from Treponema denticola” (Microbiology Spectrum, 2023).

Read-outs that look alike come from different tables or passages of the source.

One data set has as its system T1, Tde-SAS1–246.
T1 construct: gene TDE1711; N-terminal catalytic domain, residues 1-246, TPR domain removed; pET28a recombinant in E. coli BL21(DE3), IMAC purified; recombinant MW 32,557 Da; homotetramer (SEC ~160 kDa)
The data set is described as follows: AMP by-product quantified by Mono Q anion-exchange chromatography. The format is biochemical, Treponema denticola. The following applies: 5 mM ATP, 10 mM MgCl2, pH 8.8, 37 °C, no added alarmone.

The next data set concerns T2, Tde-SAS.
T2 construct: gene TDE1711; full length, 410 aa; pET28a recombinant in E. coli BL21(DE3), IMAC purified; recombinant MW 51,318 Da; homotetramer (SEC ~220 kDa)
Described as above. The following applies: 5 mM ATP, 10 mM MgCl2, pH 8.8, 37 °C, no added alarmone. The format is biochemical, Treponema denticola.

For data set [1], the target named is Tde-SAS_(1–246), catalytic domain of Treponema denticola small alarmone synthetase (Treponema denticola ATCC 35405). Briefly: SEC; size-exclusion chromatography of the purified recombinant protein; oligomeric state from the apparent MW against the monomer's calculated MW; column and buffer not given.
The target in data set [2] is Treponema denticola small alarmone hydrolase Tde-SAH (TDE1690) (Treponema denticola ATCC 35405). The data set is described as above.
For data set [3], the target named is Treponema denticola small alarmone synthetase Tde-SAS (TDE1711) (Treponema denticola ATCC 35405). The data set is described as above.
Substrate in data set [4]: Nc1nc2c(ncn2[C@@H]2O[C@H](COP(=O)(O)O)[C@@H](OP(=O)(O)OP(=O)(O)O)[C@H]2O)c(=O)[nH]1
Briefly: pyrophosphatase-coupled continuous spectrophotometric phosphate-release assay (EnzChek, MESG/PNP). The format is biochemical, Treponema denticola. The note with it: 1 mM MnCl2, pH 8.4, 37 °C.

Substrate in data set [5]: Nc1nc2c(ncn2[C@@H]2O[C@H](COP(=O)(O)OP(=O)(O)O)[C@@H](OP(=O)(O)OP(=O)(O)O)[C@H]2O)c(=O)[nH]1
The description is as above. In kind it is biochemical, Treponema denticola. The following applies: 1 mM MnCl2, pH 8.4, 37 °C.

Substrate in data set [6]: Nc1nc2c(ncn2[C@@H]2O[C@H](COP(=O)(O)OP(=O)(O)OP(=O)(O)O)[C@@H](OP(=O)(O)OP(=O)(O)O)[C@H]2O)c(=O)[nH]1
The data set is described as above. The format is biochemical, Treponema denticola. The note with it: 1 mM MnCl2, pH 8.4, 37 °C.

On to `Nc1nc2c(ncn2[C@@H]2O[C@H](COP(=O)(O)OP(=O)(O)O)[C@@H](O)[C@H]2O)c(=O)[nH]1` [GDP], for which the values for the Km with Tde-SAS1–246 (read-out: Km(GDP)) and with Tde-SAS (read-out: Km(GDP)) were 1.03 ± 0.3 mM and 5.29 ± 2.61 mM, respectively.
`Nc1nc2c(ncn2[C@@H]2O[C@H](COP(=O)(O)O)[C@@H](O)[C@H]2O)c(=O)[nH]1` [GMP]: the results for the Km in the data set with Tde-SAS1–246 (read-out: Km(GMP)) and with Tde-SAS (read-out: Km(GMP)) were 3.44 ± 0.6 mM and 11.7 ± 1.69 mM, respectively.
For the molecule `Nc1nc2c(ncn2[C@@H]2O[C@H](COP(=O)(O)OP(=O)(O)OP(=O)(O)O)[C@@H](O)[C@H]2O)c(=O)[nH]1` [GTP], the Michaelis-Menten constant (Km) – broadly, the substrate concentration at which the rate is half of its maximum – in the data set with Tde-SAS1–246 (read-out: Km(GTP)) came to 2.91 ± 0.75 mM; in the data set with Tde-SAS (read-out: Km(GTP)) it was 6.09 ± 1.01 mM.
Regarding “Tde-SAS_(1–246), catalytic domain of Treponema denticola small alarmone synthetase (domain or fragment)”, the stoichiometry N (usually the number of molecules, sites or subunits per partner or assembly) in data set [1] is 4.
Turning to “Treponema denticola small alarmone hydrolase Tde-SAH (TDE1690) (enzyme)”, the stoichiometry N in data set [2] was 2.
For the molecule “Treponema denticola small alarmone synthetase Tde-SAS (TDE1711) (enzyme)”, the stoichiometry N in data set [3] was 4.

B1: Tde-SAH (Treponema denticola ATCC 35405) (protein)
chain: MLSFDSNKEFALTRDLGVLKGIYLAPYMQVATALIGKARHAGGNMFRHQVDTMAILIDYGYIDSVLLKASLIHDVIEDIEDFNVNEILSIDSESGQVYELVLEVTKKKGQEKTEYLKNIIKNGSEKAKILKCADRISNMISLGFVTDSEFIERYCNETELYIFPIALEVNFEMYKELMALVVSRRQYLVECGYLEERVKKMRKAR
notes: full length (205 aa in the introduction, 210 aa in the abstract); pET28a recombinant in E. coli BL21(DE3), IMAC purified; recombinant MW 27,091 Da; homodimer (SEC ~44 kDa)
Take B1: the Km in data set [4] was found to be 0.12 mM; in data set [5], 0.11 mM; in data set [6] it was 0.21 mM. Also, the kcat (usually the number of substrate molecules converted per active site and unit of time at saturation) in data set [4] turned out to be 0.54 ± 0.04 s⁻¹; in data set [5], 0.79 ± 0.07 s⁻¹.
